This is an account of results in the supplement of paper PMC9170038.

The data set deals with MS2 coat protein. The experiment in a line: apparent KD of MS2 coat protein; designed switch direction (-1 OFF switch, 1 ON switch): 1; higher = weaker reporter binding. In outline: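 Normalised cluster fluorescence was curve-fitted, and each design's median over clusters is its apparent KD. Before this, SNAP-549-labelled MS2 coat protein was titrated from 0.7 or 1.5 nM, doubling to 3 µM, over RNA switches transcribed on Illumina chips by stalled E. coli RNA polymerase. Titrations had no input, 200 uM small-molecule ligand, or an oligonucleotide input, and steps lasted 0.8–1.5 h (lowest) to 10–20 min (highest).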

Where [1] appears, read: Eterna round: R95, input ligand: FMN 200 uM.
[2] abbreviates: Eterna round: R95, input ligand: microRNA oligo, concentration not stated.
[3] abbreviates: Eterna round: R95, input ligand: none.
Setting [4] is: input ligand: microRNA oligo, concentration not stated.

Consider “AUUAAACAUGAGGAUCACCCAUGUCAUCAAAGUCGAGGAUAUGGGCAAAUAAAAUAAGAACCAGAAGGCGAAUAAU [salish99_ss1_r3_073] (puzzle: Same State 1)”, for which the “apparent KD of MS2 coat protein” value is 69.6 nM under setting [1], 122 nM under setting [2] and 269 nM under setting [3].

As for “AAACAUGAGCGAGGAUAUGCGGAGGAUCACCCUGUAGAAGGCGCAUGUAAAACAACAUGAGGAUCACCCAUGUCAUGUACAUAA (Eterna round: R96, puzzle: Same State NG 1)”, the “apparent KD of MS2 coat protein” value is 77.5 nM (input ligand: FMN 200 uM), 144 nM under setting [4] and 223 nM (input ligand: none).

Turning to “GUUAGGAAUCUAGCUGACAUGAGGAUCACCCAUGUUAGUGGGAAGGAUAUGGUACAGAAACUGUACCAGAAGGUCUUACUGUCU [MOD Omei's SS(NG) 3 AV9] (Eterna round: R96, puzzle: Same State NG 3)”, the “apparent KD of MS2 coat protein” value amounted to 23.8 nM (input ligand: FMN 200 uM), 21.4 nM under setting [4] and 25.9 nM (input ligand: none).

Turning to “UAGAGAGGAAGCGAGGAUAUCGUGUUAGGUACAUGAGGAUCACCCAUGUUGUAGGUAGAGGUAGGCGAGAAGGCGCAGGAGAGGA [JR_SS2_Sub092] (puzzle: Same State 2)”, the “apparent KD of MS2 coat protein” value by setting is: under setting [1], 35.6 nM; under setting [2], 37.6 nM; under setting [3], 66.2 nM.

In the case of “UAUUAAUCUGUAGGAUAUCUAGGAUAUGGACGAGGAUCACCCGAGCAGCAUCAGCGCACCAGAGGAGAGAAGGACGCUUUGGUG [pwkr ssNG2 2F5 2FMN.2] (Eterna round: R96, puzzle: Same State NG 2)”, the “apparent KD of MS2 coat protein” value runs as follows: (input ligand: FMN 200 uM) 325 nM; under setting [4], 208 nM; (input ligand: none) 367 nM.

On to “GUAGAUAUAGAGGAGGAUAUUCAAUGAGGAACAUGAGGAUCACCCAUGUAAGAGAGAGAUGAUGAGAAGAAGGCUUAGAGGGAUG [Altered State 2-3 - Jieux - Same State 2] (puzzle: Same State 2)”, for which the “apparent KD of MS2 coat protein” value worked out at 46.5 nM under setting [1], 84.6 nM under setting [2] and 62 nM under setting [3].

For the sequence “AGCGAGAUAGGCAAGGAUAUGUAGUUUGGCACAUGAGGAUCACCCAUGUCAAUCCAUUUUUUGGAACAGAAGGUGCAUUCUCUUU [ak fourth] (puzzle: Same State 2)”, the “apparent KD of MS2 coat protein” value by setting is: under setting [1], 33.4 nM; under setting [2], 12.2 nM; under setting [3], 19.5 nM.

In the case of “GCGGACCUCACAUGAGGAUCACCCAUGUUGCGGAGACGCAAUGAGGAUAUCGAUGGGUUUCCCGUCGAGAAGGCAUAAAUCCGC [JL SSNG3 3.93 mod 4] (Eterna round: R96, puzzle: Same State NG 3)”, the “apparent KD of MS2 coat protein” value reads like this: (input ligand: FMN 200 uM) 109 nM; under setting [4], 44.5 nM; (input ligand: none) 56.6 nM.

Turning to “AACAAUCUAUCUGAGGAUAUCAUGUCAAAGACAUGAGGAUCACCCAUGUACCAGGAAACUGGUUAUGAGAAGGCAGAUAGAUUGA [SS2: 1115] (Eterna round: R96, puzzle: Same State 2)”, the “apparent KD of MS2 coat protein” value came out at 48.2 nM (input ligand: FMN 200 uM), 596 nM under setting [4] and 932 nM (input ligand: none).

In the case of “AGGUGGUGUGGAAAGGAUAUACGGUUGAGGACAUGAGGAUCACCCAUGUGGUAGAGGACGUGAGUGUAGAAGGUUCGGGAUUGGU [JR_SS@_Sub023] (puzzle: Same State 2)”, the “apparent KD of MS2 coat protein” value under setting [2] was determined as 48.5 nM.

Take “GUAAGGCAAGCUUUUUUCUCGUAGUGUAAACAUGAGGAUCACCCAUGUGCUCGCCCUGGACCUUUGGAUCGCAGAAA [Tiesmain] (puzzle: Sensor for hsa-mir-208a)”: the “apparent KD of MS2 coat protein” value is, setting by setting: under setting [1], 36.4 nM; under setting [2], 22.2 nM; under setting [3], 46.3 nM.

Turning to “GAGGGACAUGAGGAUCACCCAUGUGGAGGGAGUAAAGGAUAUUAGUGUGGGAAAGUAGGGUAAGAAGGUUGAUUGG [JR_SS1_Sub084] (puzzle: Same State 1)”, the “apparent KD of MS2 coat protein” value came to 103 nM under setting [1], 74.9 nM under setting [2] and 209 nM under setting [3].

For “GCUCGCGGCGCAGGAUAUGGGUGCCUGUACAUGAGGAUCACCCAUGUUAAGGGACGGAAAACGAACCAGAAGGGCGUCGCAAGC [Zaorquor] (Eterna round: R96, puzzle: Same State NG 2)”, the “apparent KD of MS2 coat protein” value (input ligand: FMN 200 uM) turned out to be 56 nM, the “apparent KD of MS2 coat protein” value under setting [4] was 167 nM and the “apparent KD of MS2 coat protein” value (input ligand: none) worked out at 140 nM.

“GCCAUCGAAUGAGGAUAUGGCACCGUUUCGGUGCCAGAAGGCAUGUCAAUUGACAUGAGGAUCACCCAUGUAUUAUCGAUGGCA [JL Fiskers NG1ss - 33 mod 5] (Eterna round: R96, puzzle: Same State NG 1)”: the “apparent KD of MS2 coat protein” value runs as follows: (input ligand: FMN 200 uM) 119 nM; under setting [4], 712 nM; (input ligand: none) 1640 nM.

With “GCUACAUGAGGAUCACCCAUGUGUGCGUGGGAGUGAGUGGCUUAGGAUAUCUAUGACUUGAGUUGAGAGAAGGAGGAUUGCUGU [SS-NG3-LRO12] (Eterna round: R96, puzzle: Same State NG 3)”, the “apparent KD of MS2 coat protein” value reads like this: (input ligand: FMN 200 uM) 105 nM; under setting [4], 82.6 nM; (input ligand: none) 118 nM.

“UGUCCAGCCUGAGCUGGACAAAAGCAUGUACAUGAGGAUCACCCAUGUUCAUGUACAAGCUUUUUGCUCGUCUUAUU [salish99_208a_r3_048] (puzzle: Sensor for hsa-mir-208a)”: the “apparent KD of MS2 coat protein” value reads like this: under setting [1], 465 nM; under setting [2], 14.1 nM; under setting [3], 491 nM.

For the sequence “UCGAGCGUACUUGCAGACAUGAGGAUCACCCAUGUAAAUGGGAAGGAUAUGGUACCGUUUCGGUACCAGAAGGUCCUGGGUGCU [salish99_SSNG3_r04_307] (Eterna round: R96, puzzle: Same State NG 3)”, the “apparent KD of MS2 coat protein” value was 329 nM (input ligand: FMN 200 uM), 1090 nM under setting [4] and 984 nM (input ligand: none).

For the sequence “GGAAUGUGAUGUUACAUGAGGAUCACCCAUGUAGUGACAACUAAGGAUAUCUGAAAGGAAGGAGAGGAGAAGGUAGGAUCACAA [AK SSNG3-V2-16] (Eterna round: R96, puzzle: Same State NG 3)”, the “apparent KD of MS2 coat protein” value came out at 15.2 nM (input ligand: FMN 200 uM), 24.1 nM under setting [4] and 40.8 nM (input ligand: none).

Consider “GAUAGACAUGAGGAUCACCCAUGUGACAAAACCACAGGAUAUCAUGCAGGCGUACCUGCAUGAGAAGGGUGAGACU [Ceriinaqu] (puzzle: Same State 1)”, for which the “apparent KD of MS2 coat protein” value is, setting by setting: under setting [1], 29.7 nM; under setting [2], 35.3 nM; under setting [3], 22 nM.

With “ACAAGACAUGAGGAUCACCCAUGUAUAAAUUACACAGGAUAUCGGCGGACCGCACCCGCACGAGAAGGGUGACUUC [Eszaleer] (puzzle: Same State 1)”, the “apparent KD of MS2 coat protein” value runs as follows: under setting [1], 472 nM; under setting [2], 34.1 nM; under setting [3], 24.7 nM.

As to “UGGAGACGUCAAGGAUAUGCUACCGUUUCGGUAGCAGAAGGUGAUCACAUGAGGAUCACCCAUGUAUGCAUGCGUGAGCGUGCU [JL SSNG1 3.52] (Eterna round: R96, puzzle: Same State NG 1)”, the “apparent KD of MS2 coat protein” value came out at 72.1 nM (input ligand: FMN 200 uM), 2.49 nM under setting [4] and 6.24 nM (input ligand: none).

“UUGAAGAAUUAAGGAUAUUGAAUACAUAUGUUUAACAUGAGGAUCACCCAUGUGGGUUGCGGUGUCGAGAAGGUAAAAUAAUAG [Mat - same State NG 2 - JL mod - D95] (Eterna round: R96, puzzle: Same State NG 2)”: the “apparent KD of MS2 coat protein” value is, setting by setting: (input ligand: FMN 200 uM) 194 nM; under setting [4], 124 nM; (input ligand: none) 329 nM.

Regarding “AUACAUGAGGAUCACCCAUGUAAUUAAUUAAUUAAUAAGAUCUAGGAUAUCAGCUCGUUUAGAGCUGAGAAGGAGAUCACAUGU [SSNG3/21-B3] (Eterna round: R96, puzzle: Same State NG 3)”, the “apparent KD of MS2 coat protein” value under setting [4] was found to be 19.8 nM.

Regarding “ACAUGAGAUUGAGGAUAUAUUGUACCUACAUGUGACAUGAGGAUCACCCAUGUGGUAAGUAUGACAUAGAAGGCAGAGAUAUGU [Equivalance 84 - Jieux - Same State NG 2] (Eterna round: R96, puzzle: Same State NG 2)”, the “apparent KD of MS2 coat protein” value is, setting by setting: (input ligand: FMN 200 uM) 67.7 nM; under setting [4], 107 nM; (input ligand: none) 75.3 nM.

As to “GCUGCAAGGGCAGGAUAUGGGUCCAGAGCGCAAGUGCGCCCUGGUACAUGAGGAUCACCCAUGUCCCAGAAGGGCCCAAGCAGC [Vetierribi] (Eterna round: R96, puzzle: Same State NG 2)”, the “apparent KD of MS2 coat protein” value turned out to be 12.9 nM (input ligand: FMN 200 uM), 68.9 nM under setting [4] and 87.6 nM (input ligand: none).

Consider “UUCCCAUCGGGAGGAUAUGGUUCCUUAUUGGUUCUAGAAGGUCCAACAUGAGGAUCACCCAUGUGGGAGUGGUCUAAUGACCUC [SS NG10LRO05] (Eterna round: R96, puzzle: Same State NG 1)”, for which the “apparent KD of MS2 coat protein” value is, setting by setting: (input ligand: FMN 200 uM) 889 nM; under setting [4], 256 nM; (input ligand: none) 702 nM.

In the case of “GUGGUCAGACAUGAGGAUCACCCAUGUGGAAUAAAUAAGGACUAGGAUAUGGAAUAUAGGAUAUACCAGAAGGAGUGGUUGGUG (Eterna round: R96, puzzle: Same State NG 3)”, the “apparent KD of MS2 coat protein” value under setting [4] amounted to 36.5 nM.

“GUAGAUAUAAAGGAGGAUAUUCAAUGAGAGACAUGAGGAUCACCCAUGUGAGAGUGAGAUGAUAGGAAGAAGGCUUAGAGAGAUG [Altered State 2-6 - Jieux - Same State 2] (puzzle: Same State 2)”: the “apparent KD of MS2 coat protein” value amounted to 64.1 nM under setting [1], 54.9 nM under setting [2] and 72 nM under setting [3].
